Measurements: patent US12281155 (INSTITUT PASTEUR, dated 2025)
Numbering of substitutions follows the chain as printed.

B1: SPK002M C2 antibody (antibody, human IgG1, kappa, V domains shown)
VH: EVQLVESGGGLIQPGGSLRLSCAASIITVTSNYMSWVRQAPGKGLEWVSVAYPGGSTFYADSVKGRFTISTDNSKNTLYLQMNSLRAEDTAVYYCARDLVVYGMDVWGQGTTVTVSS
VL: EIVLTQSPGTLSLSPGERATLSCRASQSVSSSYLAWYQQKPGQAPRLLIYGASSRATGIPGRFSGSGSGTDFTLTISRLEPEDFAVYYCQQGVTFGGGTKVEIKR
B2: SPK002M C3 antibody (antibody, human IgG1, kappa, V domains shown)
VH: B1 VH with A51I
VL: B1 VL

Key:
[1] = biological target: Spike protein of SARS-CoV-2 strain BA.2.86 (hCoV-19/France/IDF-IPP17625/2023) (SARS-CoV-2); experiment: cell-based or functional assay
[2] = biological target: Spike protein of SARS-CoV-2 strain XBB.1.5 (GISAID EPI_ISL_16353849) (SARS-CoV-2); experiment: cell-based or functional assay
[3] = biological target: Spike protein of SARS-CoV-2 strain D614G (hCoV-19/France/GE1973/2020) (SARS-CoV-2, UniProt P0DTC2 14-1273); experiment: cell-based or functional assay
[4] = biological target: Spike protein of SARS-CoV-2 strain EG.5.1 (hCoV-19/France/GES-IPP15954/2023) (SARS-CoV-2); experiment: cell-based or functional assay
[5] = biological target: Spike protein of SARS-CoV-2 strain JN.1 (hCoV-19/France/HDF-IPP21391/2023) (SARS-CoV-2); experiment: cell-based or functional assay
[6] = biological target: Spike protein of SARS-CoV-2 strain XBB.1.16 (hCoV-19/France/GES-IPP7712/2023) (SARS-CoV-2); experiment: cell-based or functional assay
[7] = biological target: T1, recombinant SARS-CoV-2 Spike RBD domain, XBB.1.16 variant (SARS-CoV-2); experiment: ELISA on coated RBD
T1 construct: also called RBD XBB.1.16 variant

[8] = biological target: T2, recombinant SARS-CoV-2 Spike RBD domain, EG.5 variant (SARS-CoV-2); experiment: ELISA on coated RBD
T2 construct: also called RBD EG.5.1 variant

[9] = biological target: T3, recombinant SARS-CoV-2 Spike RBD domain, BA.4/5 variant (SARS-CoV-2); experiment: ELISA on coated RBD
T3 construct: also called RBD BA.4/5 variant

[10] = biological target: T4, recombinant SARS-CoV-2 Spike RBD domain, BQ.1.1 variant (SARS-CoV-2); experiment: ELISA on coated RBD
T4 construct: also called RBD BQ.1.1. variant

[11] = biological target: T5, recombinant SARS-CoV-2 Spike RBD domain, BA.2.86 variant (SARS-CoV-2); experiment: ELISA on coated RBD
T5 construct: also called RBD BA.2.86 variant

[12] = biological target: T6, recombinant SARS-CoV-2 Spike RBD domain, BA.2.75.2 variant (SARS-CoV-2); experiment: ELISA on coated RBD
T6 construct: also called RBD BA.2.75.2 variant

[13] = biological target: T7, recombinant SARS-CoV-2 Spike RBD domain, BA.2 variant (SARS-CoV-2); experiment: ELISA on coated RBD
T7 construct: also called RBD BA.2. variant

[14] = biological target: T8, recombinant SARS-CoV-2 Spike RBD domain, JN-1 variant (SARS-CoV-2); experiment: ELISA on coated RBD
T8 construct: also called RBD JN-1 variant

[15] = biological target: T9, recombinant SARS-CoV-2 Spike RBD domain, Delta variant (SARS-CoV-2); experiment: ELISA on coated RBD
T9 construct: also called RBD Delta variant

[16] = biological target: T10, recombinant SARS-CoV-2 Spike RBD domain, XBB.1.5 variant (SARS-CoV-2); experiment: ELISA on coated RBD
T10 construct: also called RBD XBB.1.5 variant

[17] = biological target: T1, recombinant SARS-CoV-2 Spike RBD …; experiment: competition ELISA, blocking of RBD binding to ACE2 ectodomain
[18] = biological target: T2, recombinant SARS-CoV-2 Spike RBD …; experiment: as above
[19] = biological target: T3, recombinant SARS-CoV-2 Spike RBD …; experiment: as above
[20] = biological target: T4, recombinant SARS-CoV-2 Spike RBD …; experiment: as above
[21] = biological target: T5, recombinant SARS-CoV-2 Spike RBD …; experiment: as above
[22] = biological target: T6, recombinant SARS-CoV-2 Spike RBD …; experiment: as above
[23] = biological target: T7, recombinant SARS-CoV-2 Spike RBD …; experiment: as above
[24] = biological target: T8, recombinant SARS-CoV-2 Spike RBD …; experiment: as above
[25] = biological target: T9, recombinant SARS-CoV-2 Spike RBD …; experiment: as above
[26] = biological target: T10, recombinant SARS-CoV-2 Spike RBD …; experiment: as above

Binder	IC50, S-Fuse neutralization of live virus [1] [µg/mL]	IC50, S-Fuse neutralization of live virus [2] [µg/mL]	IC50, S-Fuse neutralization of live virus [3] [µg/mL]	IC50, S-Fuse neutralization of live virus [4] [µg/mL]	IC50, S-Fuse neutralization of live virus [5] [µg/mL]	IC50, S-Fuse neutralization of live virus [6] [µg/mL]	Binding AUC [7]	Binding AUC [8]	Binding AUC [9]	Binding AUC [10]	Binding AUC [11]	Binding AUC [12]	Binding AUC [13]	Binding AUC [14]	Binding AUC [15]	Binding AUC [16]	Blocking % [17] [%]	Blocking % [18] [%]	Blocking % [19] [%]	Blocking % [20] [%]	also measured
B1	0.05	0.14	0.06	2.16	53.8	0.21	29	32	30	31	38	28	23	33	32	31	93	89	93	95	Blocking % [21]: 91%; Blocking % [22]: 92%; Blocking % [23]: 93%; Blocking % [24]: 28%; Blocking % [25]: 90%; Blocking % [26]: 93%
B2	0.33	0.13	0.08	6.08	60.1	0.3	31	33	32	31	38	29	19	29	33	32	90	81	94	94	Blocking % [21]: 90%; Blocking % [22]: 94%; Blocking % [23]: 94%; Blocking % [24]: 0%; Blocking % [25]: 95%; Blocking % [26]: 90%
